According to US20210292413A1:

Assays:
[1] = biological target: T1, human Siglec-3 on cells (moDC, PBMC of CHB patients) (human), P20138; experiment: co-IP (IP: Siglec-3) from moDC treated with anti-Siglec-3 mAb 10C8; Western blot, densitometry, fold of Mock [A]; details: remark: other sources report otherwise
[2] = biological target: T1, human Siglec-3 on cells (moDC, PBMC of …); experiment: co-IP (IP: Siglec-3) from moDC treated with HBV (hHBV); Western blot, densitometry, fold of Mock [A]; details: remark: other sources report otherwise
[3] = biological target: T1, human Siglec-3 on cells (moDC, PBMC of …); experiment: co-IP (IP: Siglec-3) from moDC incubated 30 mins with 0 copies/mL hHBV; Western blot, densitometry, normalized to the first lane [F]; details: remark: other sources report otherwise
[4] = biological target: T1, human Siglec-3 on cells (moDC, PBMC of …); experiment: co-IP (IP: Siglec-3) from moDC incubated with hHBV for 15 min; Western blot, densitometry, normalized to the starting point [E]
[5] = biological target: T1, human Siglec-3 on cells (moDC, PBMC of …); experiment: co-IP (IP: Siglec-3) from moDC incubated with hHBV for 0 min; Western blot, densitometry, normalized to the starting point [E]
[6] = biological target: T1, human Siglec-3 on cells (moDC, PBMC of …); experiment: co-IP (IP: Siglec-3) from moDC incubated 30 mins with 3x10^8 copies/mL hHBV; Western blot, densitometry, normalized to the first lane [F]; details: remark: other sources report otherwise
[7] = biological target: T1, human Siglec-3 on cells (moDC, PBMC of …); experiment: co-IP (IP: Siglec-3) from moDC, HBV -, 10C8 -; Western blot, densitometry, normalized to the untreated control [E]; details: remark: other sources report otherwise
[8] = biological target: T1, human Siglec-3 on cells (moDC, PBMC of …); experiment: co-IP (IP: Siglec-3) from moDC incubated with hHBV for 30 min; Western blot, densitometry, normalized to the starting point [E]
[9] = biological target: T1, human Siglec-3 on cells (moDC, PBMC of …); experiment: co-IP (IP: Siglec-3) from moDC treated with anti-Siglec-3 mAb 2B9; Western blot, densitometry, fold of Mock [A]; details: remark: other sources report otherwise
[10] = biological target: T1, human Siglec-3 on cells (moDC, PBMC of …); experiment: co-IP (IP: Siglec-3) from moDC, HBV +, 10C8 + (10C8 given 1 hour before HBV); Western blot, densitometry, normalized to the untreated control [E]; details: remark: other sources report otherwise
[11] = biological target: T1, human Siglec-3 on cells (moDC, PBMC of …); experiment: co-IP (IP: Siglec-3) from moDC incubated with hHBV for 60 min; Western blot, densitometry, normalized to the starting point [E]
[12] = biological target: T1, human Siglec-3 on cells (moDC, PBMC of …); experiment: co-IP (IP: Siglec-3) from moDC, HBV -, 10C8 +; Western blot, densitometry, normalized to the untreated control [E]; details: remark: other sources report otherwise
[13] = biological target: T1, human Siglec-3 on cells (moDC, PBMC of …); experiment: co-IP (IP: Siglec-3) from moDC, lane Mock; Western blot, densitometry [A]; details: remark: other sources report otherwise
[14] = biological target: T1, human Siglec-3 on cells (moDC, PBMC of …); experiment: co-IP (IP: Siglec-3) from moDC, HBV +, 10C8 -; Western blot, densitometry, normalized to the untreated control [E]; details: remark: other sources report otherwise
[15] = biological target: T1, human Siglec-3 on cells (moDC, PBMC of …); experiment: co-IP (IP: Siglec-3) from moDC incubated 30 mins with 10^9 copies/mL hHBV; Western blot, densitometry, normalized to the first lane [F]; details: remark: other sources report otherwise
[16] = biological target: T1, human Siglec-3 on cells (moDC, PBMC of …); experiment: co-IP (IP: Siglec-3) from moDC incubated 30 mins with 10^8 copies/mL hHBV; Western blot, densitometry, normalized to the first lane [F]; details: remark: other sources report otherwise

T1 sequence (P20138 18-364): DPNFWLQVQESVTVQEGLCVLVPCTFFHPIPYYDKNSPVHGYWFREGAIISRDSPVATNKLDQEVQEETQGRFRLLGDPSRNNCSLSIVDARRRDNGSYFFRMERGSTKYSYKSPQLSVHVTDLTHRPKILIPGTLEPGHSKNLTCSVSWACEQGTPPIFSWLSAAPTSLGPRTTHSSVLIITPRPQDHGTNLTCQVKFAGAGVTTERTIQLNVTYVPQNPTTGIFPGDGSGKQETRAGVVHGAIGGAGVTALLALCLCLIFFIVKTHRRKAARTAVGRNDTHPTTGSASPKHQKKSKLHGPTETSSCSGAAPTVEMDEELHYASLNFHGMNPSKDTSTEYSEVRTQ

B1: SHP-2, Q06124 2-593 (protein, human, UniProt Q06124 2-593, looked up)
chain: TSRRWFHPNITGVEAENLLLTRGVDGSFLARPSKSNPGDFTLSVRRNGAVTHIKIQNTGDYYDLYGGEKFATLAELVQYYMEHHGQLKEKNGDVIELKYPLNCADPTSERWFHGHLSGKEAEKLLTEKGKHGSFLVRESQSHPGDFVLSVRTGDDKGESNDGKSKVTHVMIRCQELKYDVGGGERFDSLTDLVEHYKKNPMVETLGTVLQLKQPLNTTRINAAEIESRVRELSKLAETTDKVKQGFWEEFETLQQQECKLLYSRKEGQRQENKNKNRYKNILPFDHTRVVLHDGDPNEPVSDYINANIIMPEFETKCNNSKPKKSYIATQGCLQNTVNDFWRMVFQENSRVIVMTTKEVERGKSKCVKYWPDEYALKEYGVMRVRNVKESAAHDYTLRELKLSKVGQGNTERTVWQYHFRTWPDHGVPSDPGGVLDFLEEVHHKQESIMDAGPVVVHCSAGIGRTGTFIVIDILIDIIREKGVDCDIDVPKTIQMVRSQRSGMVQTEAQYRFIYMAVQHYIETLQRRIEEEQKSKRKGHEYTNIKYSLADQTSGDQSPLPPCTPTPPCAEMREDSARVYENVGLMQQQKSFR
fold change of SHP-2 co-precipitated with Siglec-3 [1]: 1.3 fold | fold change of SHP-2 co-precipitated with Siglec-3 [2]: 1.2 fold | fold change of SHP-2 co-precipitated with Siglec-3 [3]: 1 fold | fold change of SHP-2 co-precipitated with Siglec-3 [4]: 1.5 fold | fold change of SHP-2 co-precipitated with Siglec-3 [5]: 1 fold | fold change of SHP-2 co-precipitated with Siglec-3 [6]: 1.2 fold | fold change of SHP-2 co-precipitated with Siglec-3 [7]: 1 fold | fold change of SHP-2 co-precipitated with Siglec-3 [8]: 2.4 fold | fold change of SHP-2 co-precipitated with Siglec-3 [9]: 4.3 fold | fold change of SHP-2 co-precipitated with Siglec-3 [10]: 1.6 fold | fold change of SHP-2 co-precipitated with Siglec-3 [11]: 1.3 fold | fold change of SHP-2 co-precipitated with Siglec-3 [12]: 1.2 fold | fold change of SHP-2 co-precipitated with Siglec-3 [13]: 1 fold | fold change of SHP-2 co-precipitated with Siglec-3 [14]: 2.7 fold | fold change of SHP-2 co-precipitated with Siglec-3 [15]: 1.6 fold | fold change of SHP-2 co-precipitated with Siglec-3 [16]: 1.1 fold
